The results in this text go back to PMC5806898.

One experiment has as its target CD8-CIMPR (UniProt P11717). The experiment is described as follows: co-IP; native immunoprecipitation with anti-CD8 and protein A-Sepharose from HeLa cells expressing CD8-CIMPR or CD8-sortilin (control: HeLa cells); western blot, bands quantified with IMAGEJ, 3 repeats.
The next experiment has as its target CD8-sortilin (UniProt Q99523). The experiment is described as above.

Sequence of UniProt P11717 (P11717 whole entry): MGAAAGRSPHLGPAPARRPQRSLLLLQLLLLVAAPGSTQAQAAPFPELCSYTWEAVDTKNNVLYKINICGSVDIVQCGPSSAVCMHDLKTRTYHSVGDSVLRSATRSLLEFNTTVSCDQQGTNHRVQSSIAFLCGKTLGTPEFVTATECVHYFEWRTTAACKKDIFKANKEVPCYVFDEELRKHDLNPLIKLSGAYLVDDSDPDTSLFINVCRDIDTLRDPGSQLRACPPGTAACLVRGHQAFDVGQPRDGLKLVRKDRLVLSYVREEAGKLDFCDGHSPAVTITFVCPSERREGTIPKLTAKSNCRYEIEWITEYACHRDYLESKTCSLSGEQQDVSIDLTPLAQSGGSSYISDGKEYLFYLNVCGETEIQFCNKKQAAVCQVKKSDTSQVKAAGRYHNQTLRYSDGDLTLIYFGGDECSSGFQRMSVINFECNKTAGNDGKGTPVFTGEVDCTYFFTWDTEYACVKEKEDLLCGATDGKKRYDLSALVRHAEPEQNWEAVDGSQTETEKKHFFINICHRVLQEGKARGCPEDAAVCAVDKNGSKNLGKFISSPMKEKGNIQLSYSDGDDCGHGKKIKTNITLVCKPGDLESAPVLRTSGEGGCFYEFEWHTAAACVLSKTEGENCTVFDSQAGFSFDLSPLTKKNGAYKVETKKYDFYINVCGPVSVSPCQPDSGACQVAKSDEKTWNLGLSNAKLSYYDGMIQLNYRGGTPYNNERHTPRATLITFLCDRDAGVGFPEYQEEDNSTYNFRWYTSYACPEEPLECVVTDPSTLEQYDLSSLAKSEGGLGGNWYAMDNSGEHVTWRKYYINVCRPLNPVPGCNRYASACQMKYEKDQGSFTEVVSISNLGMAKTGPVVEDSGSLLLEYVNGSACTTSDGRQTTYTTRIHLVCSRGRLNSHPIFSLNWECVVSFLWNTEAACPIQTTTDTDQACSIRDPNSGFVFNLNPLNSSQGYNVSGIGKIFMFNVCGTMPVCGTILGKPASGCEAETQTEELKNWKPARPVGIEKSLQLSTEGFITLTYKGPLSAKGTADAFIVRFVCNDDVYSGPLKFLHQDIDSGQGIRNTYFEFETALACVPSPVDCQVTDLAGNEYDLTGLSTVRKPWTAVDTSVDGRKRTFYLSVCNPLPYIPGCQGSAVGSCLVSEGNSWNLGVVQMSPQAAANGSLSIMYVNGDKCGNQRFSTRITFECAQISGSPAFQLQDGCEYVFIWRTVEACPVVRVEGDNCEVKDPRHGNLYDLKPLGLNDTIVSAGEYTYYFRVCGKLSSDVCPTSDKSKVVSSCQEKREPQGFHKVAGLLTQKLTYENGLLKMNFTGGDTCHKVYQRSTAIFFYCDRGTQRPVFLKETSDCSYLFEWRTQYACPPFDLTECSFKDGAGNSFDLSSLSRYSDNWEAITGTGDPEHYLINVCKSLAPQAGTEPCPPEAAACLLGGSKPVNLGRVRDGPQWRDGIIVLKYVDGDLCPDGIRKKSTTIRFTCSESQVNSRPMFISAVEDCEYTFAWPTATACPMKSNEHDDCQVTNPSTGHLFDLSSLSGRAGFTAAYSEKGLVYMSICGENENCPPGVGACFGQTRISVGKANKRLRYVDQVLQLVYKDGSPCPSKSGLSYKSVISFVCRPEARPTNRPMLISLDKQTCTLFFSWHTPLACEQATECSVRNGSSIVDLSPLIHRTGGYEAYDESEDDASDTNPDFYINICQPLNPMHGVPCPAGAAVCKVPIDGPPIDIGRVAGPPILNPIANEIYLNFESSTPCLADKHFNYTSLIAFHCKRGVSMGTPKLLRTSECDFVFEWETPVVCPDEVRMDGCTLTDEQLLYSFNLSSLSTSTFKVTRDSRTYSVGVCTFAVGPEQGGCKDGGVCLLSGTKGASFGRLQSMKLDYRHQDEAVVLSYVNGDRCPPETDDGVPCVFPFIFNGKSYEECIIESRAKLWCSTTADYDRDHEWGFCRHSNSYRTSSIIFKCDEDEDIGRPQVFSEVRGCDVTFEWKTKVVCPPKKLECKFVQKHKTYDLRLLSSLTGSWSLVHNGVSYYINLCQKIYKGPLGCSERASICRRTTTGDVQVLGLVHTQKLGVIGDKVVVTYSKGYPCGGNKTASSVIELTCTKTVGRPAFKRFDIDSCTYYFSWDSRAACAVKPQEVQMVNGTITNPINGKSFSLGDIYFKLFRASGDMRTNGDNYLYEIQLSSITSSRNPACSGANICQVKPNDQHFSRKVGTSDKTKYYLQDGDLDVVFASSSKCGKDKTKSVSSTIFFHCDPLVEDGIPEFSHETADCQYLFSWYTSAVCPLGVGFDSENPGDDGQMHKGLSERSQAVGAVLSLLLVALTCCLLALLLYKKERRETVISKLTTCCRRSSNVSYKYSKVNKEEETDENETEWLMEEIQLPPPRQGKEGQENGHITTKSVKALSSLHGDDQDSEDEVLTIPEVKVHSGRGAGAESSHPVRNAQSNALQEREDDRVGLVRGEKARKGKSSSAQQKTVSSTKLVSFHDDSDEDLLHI

“AP-1 γ (from UniProt O43747 1-822) (natural protein)”: the figures for the percent of input pulled down in the experiment with CD8-CIMPR and with CD8-sortilin were 0.1% and 0.05%, respectively.
“SPG15 (from UniProt Q68DK2 1-2539) (natural protein)”: the percent of input pulled down in the experiment with CD8-CIMPR and with CD8-sortilin was 0.15% each time.

B1: AP-5 ζ subunit (natural protein)
chain: MFSAGAESLLHQAREIQDEELKKFCSRICKLLQAEDLGPDTLDSLQRLFLIISATKYSRRLEKTCVDLLQATLGLPACPEQLQVLCAAILREMSPSDSLSLAWDHTQNSRQLSLVASVLLAQGDRNEEVRAVGQGVLRALESRQPEGPSLRHLLPVMAKVVVLSPGTLQEDQATLLSKRLVDWLRYASLQQGLPHSGGFFSTPRARQPGPVTEVDGAVATDFFTVLSSGHRFTDDQWLNVQAFSMLRAWLLHSGPEGPGTLDTDDRSEQEGSTLSVISATSSAGRLLPPRERLREVAFEYCQRLIEQSNRRALRKGDSDLQKACLVEAVLVLDVLCRQDPSFLYRSLSCLKALHGRVRGDPASVRVLLPLAHFFLSHGEAAAVDSEAVYQHLFTRIPVEQFHSPMLAFEFIQFCRDNLHLFSGHLSTLRLSFPNLFKFLAWNSPPLTSEFVALLPALVDAGTALEMLHALLDLPCLTAVLDLQLRSAPAASERPLWDTSLRAPSCLEAFRDPQFQGLFQYLLRPKASGATERLAPLHQLLQPMAGCARVAQCAQAVPTLLQAFFSAVTQVADGSLINQLALLLLGRSDSLYPAPGYAAGVHSVLSSQFLALCTLKPSLVVELARDLLEFLGSVNGLCSRASLVTSVVWAIGEYLSVTYDRRCTVEQINKFFEALEALLFEVTQCRPSAALPRCPPQVVTVLMTTLTKLASRSQDLIPRASLLLSKMRTLAHSPATSSTHSEEGAEAIRTRATELLTLLKMPSVAQFVLTPSTEVCSPRYHRDANTALPLALRTVSRLVEREAGLMPG
On to B1, for which the percent of input pulled down turned out to be 0.08% with CD8-CIMPR and 0.23% in the experiment with CD8-sortilin.
